Experimental data from article PMC5010500 (Journal of molecular biology, 2016).

B1: MBP-tagged Marburg virus viral protein 24, wild type, full length (natural protein)
chain: MAELSTRYNLPANVTENSINLDLNSTARWIKEPSVGGWTVKWGNFVFHIPNTGMTLLHHLKSNFVVPEWQQTRNLFSHLFKNPKSTIIEPFLALRILLGVALKDQELQQSLIPGFRSIVHMLSEWLLLEVTSAIHISPNLLGIYLTSDMFKILMAGVKNFFNKMFTLHVVNDHGKPSSIEIKLTGQQIIITRVNMGFLVEVRRIDIEPCCGETVLSESVVFGLVAEAVLREHSQMEKGQPLNLTQYMNSKIAI
B2: MBP-tagged mVP24 N-terminal truncation (residues 22-253) (domain or fragment)
chain: DLNSTARWIKEPSVGGWTVKWGNFVFHIPNTGMTLLHHLKSNFVVPEWQQTRNLFSHLFKNPKSTIIEPFLALRILLGVALKDQELQQSLIPGFRSIVHMLSEWLLLEVTSAIHISPNLLGIYLTSDMFKILMAGVKNFFNKMFTLHVVNDHGKPSSIEIKLTGQQIIITRVNMGFLVEVRRIDIEPCCGETVLSESVVFGLVAEAVLREHSQMEKGQPLNLTQYMNSKIAI

Experiments:
[1] = target: T1, human Keap1 Kelch domain (residues 322-624) (human, UniProt Q14145 322-624); assay: native MS
T1 sequence (Q14145 322-624): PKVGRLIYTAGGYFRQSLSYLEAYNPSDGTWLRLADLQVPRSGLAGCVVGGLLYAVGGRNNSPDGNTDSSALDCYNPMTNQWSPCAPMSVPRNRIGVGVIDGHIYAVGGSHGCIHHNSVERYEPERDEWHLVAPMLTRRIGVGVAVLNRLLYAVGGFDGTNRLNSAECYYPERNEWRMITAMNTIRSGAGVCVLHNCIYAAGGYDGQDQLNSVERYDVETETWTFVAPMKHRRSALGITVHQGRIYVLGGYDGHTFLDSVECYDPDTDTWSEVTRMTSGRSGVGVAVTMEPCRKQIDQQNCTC

full length human Keap1 = full length human Keap1 (human, UniProt Q14145 1-624); assay: […]
Chain of full length human Keap1 (Q14145 whole entry): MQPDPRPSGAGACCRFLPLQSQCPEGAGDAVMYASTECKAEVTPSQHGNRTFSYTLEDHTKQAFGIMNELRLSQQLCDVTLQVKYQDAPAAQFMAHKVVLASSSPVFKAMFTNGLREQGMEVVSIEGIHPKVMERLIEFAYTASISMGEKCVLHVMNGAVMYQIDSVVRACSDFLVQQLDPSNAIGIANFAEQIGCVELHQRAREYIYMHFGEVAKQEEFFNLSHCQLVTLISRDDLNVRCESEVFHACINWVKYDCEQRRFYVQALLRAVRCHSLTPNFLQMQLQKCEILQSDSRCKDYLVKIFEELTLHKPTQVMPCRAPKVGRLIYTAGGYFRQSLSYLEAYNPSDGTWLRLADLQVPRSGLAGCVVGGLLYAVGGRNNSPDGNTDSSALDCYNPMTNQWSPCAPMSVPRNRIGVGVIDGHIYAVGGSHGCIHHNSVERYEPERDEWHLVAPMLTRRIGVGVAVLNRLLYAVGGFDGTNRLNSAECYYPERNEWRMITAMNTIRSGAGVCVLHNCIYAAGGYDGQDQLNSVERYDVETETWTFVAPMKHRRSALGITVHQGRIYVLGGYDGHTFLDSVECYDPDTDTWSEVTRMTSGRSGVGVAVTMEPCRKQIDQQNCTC

[…] = target: the molecule itself; assay: […]
[2] = target: T1, human Keap1 Kelch domain (residues …); assay: ITC

Binder	stoichiometry N [1]	stoichiometry N (full length human Keap1)	stoichiometry N ([…])	Kd [2] [nM]
B1	1	1 mVP24 per Keap1 (2:2)	2	
B2				77 ± 4
